The values that follow come from ChEMBL document CHEMBL1122575, “Dependence of beta-lactamase stability on substructures within beta-lactam antibiotics” (J Med Chem, 1984).

Substrate in data set [1]: CC1(C)S[C@@H]2[C@H](NC(=O)Cc3ccccc3)C(=O)N2[C@H]1C(=O)O
The data set can be described thus: (§1) Stability against beta-lactamase of Staphylococcus aureus.

Substrate in data set [2]: COc1cccc(OC)c1C(=O)N[C@@H]1C(=O)N2C1SC(C)(C)C2C(=O)O
The data set is described as §1.

Substrate in data set [3]: CC1(C)SC2[C@H](NC(=O)c3ccccc3)C(=O)N2C1C(=O)O
The data set is described as §1.

B1: Beta-lactamase (Staphylococcus aureus), P00807 (protein)
chain: MKKLIFLIVIALVLSACNSNSSHAKELNDLEKKYNAHIGVYALDTKSGKEVKFNSDKRFAYASTSKAINSAILLEQVPYNKLNKKVHINKDDIVAYSPILEKYVGKDITLKALIEASMTYSDNTANNKIIKEIGGIKKVKQRLKELGDKVTNPVRYEIELNYYSPKSKKDTSTPAAFGKTLNKLIANGKLSKENKKFLLDLMLNNKSGDTLIKDGVPKDYKVADKSGQAITYASRNDVAFVYPKGQSEPIVLVIFTNKDNKSDKPNDKLISETAKSVMKEF
For the protein B1, the Km (usually the concentration of substrate that gives half-maximal velocity) was determined as 12 µM in data set [1], 5000 µM in data set [2] and 33 µM in data set [3].
